Target: T1, human PDL1 antigen (human, UniProt Q9NZQ7 19-238)
T1 construct: they are put here
Assay: Biacore (SPR), Fab arm in a bsAb; value told in the text

Binder | Kd [µM]
αPDL1×αCD28 bsAb with PDL1 binding domain 2G4_H1.12_L1.66 and CD28 binding domain 1A7_H1.14_L1.71 (bispecific antibody) heavy: EVQLLESGGGLVQPGGSLRLSCAASGFTFSVYDMSWVRQAPGKRLEWVSTISSGGSFTHYPDSVKGRFTISRDNSKNTLYLQMNSLRAEDTAVYYCVRRSLDWYFDVWGAGTTVTVSSASTKGPSVFPLAPSSKSTSGGTAALGCLVKDYFPEPVTVSWNSGALTSGVHTFPAVLQSSGLYSLSSVVTVPSSSLGTQTYICNVNHKPSDTKVDKKVEPKSCDKTHTCPPCPAPPVAGPSVFLFPPKPKDTLMISRTPEVTCVVVDVKHEDPEVKFNWYVDGVEVHNAKTKPREEEYNSTYRVVSVLTVLHQDWLNGKEYKCKVSNKALPAPIEKTISKAKGQPREPQVYTLPPSREEMTKNQVSLTCDVSGFYPSDIAVEWESDGQPENNYKTTPPVLDSDGSFFLYSKLTVDKSRWEQGDVFSCSVMHEALHNHYTQKSLSLSPGK scFv-Fc: not shown light: EIVLTQSPGTLSLSPGERATLSCRVSSSIQSTNLHWYQQKPGQSPRPLIYGTSNLATGVPVRFSGSGSGTDYTLTISRLEPEDFAVYYCQQWSSYPLYTFGGGTKVEIKRTVAAPSVFIFPPSDEQLKSGTASVVCLLNNFYPREAKVQWKVDNALQSGNSQESVTEQDSKDSTYSLSSTLTLSKADYEKHKVYACEVTHQGLSSPVTKSFNRGEC | 0.00086
αPDL1×αCD28 bsAb with PDL1 binding domain 2G4_H1.12_L1.24 and CD28 binding domain 1A7_H1.14_L1.71 (bispecific antibody, also called XENP38512; XENP40036) heavy: EVQLLESGGGLVQPGGSLRLSCAASGFTFSVYDMSWVRQAPGKRLEWVSTISSGGSFTHYPDSVKGRFTISRDNSKNTLYLQMNSLRAEDTAVYYCVRRSLDWYFDVWGAGTTVTVSSASTKGPSVFPLAPSSKSTSGGTAALGCLVKDYFPEPVTVSWNSGALTSGVHTFPAVLQSSGLYSLSSVVTVPSSSLGTQTYICNVNHKPSDTKVDKKVEPKSCDKTHTCPPCPAPPVAGPSVFLFPPKPKDTLMISRTPEVTCVVVDVKHEDPEVKFNWYVDGVEVHNAKTKPREEEYNSTYRVVSVLTVLHQDWLNGKEYKCKVSNKALPAPIEKTISKAKGQPREPQVYTLPPSREEMTKNQVSLTCDVSGFYPSDIAVEWESDGQPENNYKTTPPVLDSDGSFFLYSKLTVDKSRWEQGDVFSCSVMHEALHNHYTQKSLSLSPGK scFv-Fc: not shown light: EIVLTQSPGTLSLSPGERATLSCRVSSSIQSTNLHWYQQKPGQSPRPLIYGTSVLATGVPVRFSGSGSGTDYTLTISRLEPEDFAVYYCQQWSSYPLYTFGGGTKVEIKRTVAAPSVFIFPPSDEQLKSGTASVVCLLNNFYPREAKVQWKVDNALQSGNSQESVTEQDSKDSTYSLSSTLTLSKADYEKHKVYACEVTHQGLSSPVTKSFNRGEC | 0.00017
αPDL1×αCD28 bsAb with PDL1 binding domain 2G4_H1.12_L1.14 and CD28 binding domain 1A7_H1.14_L1.71 (bispecific antibody, also called XENP40409 (non-Xtend analog of XENP40706)) heavy: EVQLLESGGGLVQPGGSLRLSCAASGFTFSVYDMSWVRQAPGKRLEWVSTISSGGSFTHYPDSVKGRFTISRDNSKNTLYLQMNSLRAEDTAVYYCVRRSLDWYFDVWGAGTTVTVSSASTKGPSVFPLAPSSKSTSGGTAALGCLVKDYFPEPVTVSWNSGALTSGVHTFPAVLQSSGLYSLSSVVTVPSSSLGTQTYICNVNHKPSDTKVDKKVEPKSCDKTHTCPPCPAPPVAGPSVFLFPPKPKDTLMISRTPEVTCVVVDVKHEDPEVKFNWYVDGVEVHNAKTKPREEEYNSTYRVVSVLTVLHQDWLNGKEYKCKVSNKALPAPIEKTISKAKGQPREPQVYTLPPSREEMTKNQVSLTCDVSGFYPSDIAVEWESDGQPENNYKTTPPVLDSDGSFFLYSKLTVDKSRWEQGDVFSCSVMHEALHNHYTQKSLSLSPGK scFv-Fc: not shown light: EIVLTQSPGTLSLSPGERATLSCRVSSSIQSSNLHWYQQKPGQSPRPLIYGTSNLASGVPVRFSGSGSGTDYTLTISRLEPEDFAVYYCQQWSSYPLYTFGGGTKVEIKRTVAAPSVFIFPPSDEQLKSGTASVVCLLNNFYPREAKVQWKVDNALQSGNSQESVTEQDSKDSTYSLSSTLTLSKADYEKHKVYACEVTHQGLSSPVTKSFNRGEC | 0.00042
αPDL1×αCD28 bsAb with PDL1 binding domain 2G4_H1.12_L1.68 and CD28 binding domain 1A7_H1.14_L1.71 (bispecific antibody) heavy: EVQLLESGGGLVQPGGSLRLSCAASGFTFSVYDMSWVRQAPGKRLEWVSTISSGGSFTHYPDSVKGRFTISRDNSKNTLYLQMNSLRAEDTAVYYCVRRSLDWYFDVWGAGTTVTVSSASTKGPSVFPLAPSSKSTSGGTAALGCLVKDYFPEPVTVSWNSGALTSGVHTFPAVLQSSGLYSLSSVVTVPSSSLGTQTYICNVNHKPSDTKVDKKVEPKSCDKTHTCPPCPAPPVAGPSVFLFPPKPKDTLMISRTPEVTCVVVDVKHEDPEVKFNWYVDGVEVHNAKTKPREEEYNSTYRVVSVLTVLHQDWLNGKEYKCKVSNKALPAPIEKTISKAKGQPREPQVYTLPPSREEMTKNQVSLTCDVSGFYPSDIAVEWESDGQPENNYKTTPPVLDSDGSFFLYSKLTVDKSRWEQGDVFSCSVMHEALHNHYTQKSLSLSPGK scFv-Fc: not shown light: EIVLTQSPGTLSLSPGERATLSCRVSSSIQSTNLHWYQQKPGQSPRPLIYGTSNLASGVPVRFSGSGSGTDYTLTISRLEPEDFAVYYCQQWSSYPLYTFGGGTKVEIKRTVAAPSVFIFPPSDEQLKSGTASVVCLLNNFYPREAKVQWKVDNALQSGNSQESVTEQDSKDSTYSLSSTLTLSKADYEKHKVYACEVTHQGLSSPVTKSFNRGEC | 0.0008

Target: T2, human CD28 (human, UniProt P10747 19-152)
T2 construct: also called Cluster of Differentiation 28; Tp44
Assay: Octet (BLI), scFv arm in the bsAb; value told in the text

Binder | Kd [µM]
XENP37561 (bispecific antibody, 1+1 Fab-scFv-Fc format; scFv in VL-linker-VH orientation; also called αPDL1×αCD28 bsAb; 1A7_L1.71_H1.14) heavy: EVQLLESGGGLVQPGGSLRLSCAASGFTFSSYDMSWVRQAPGKRLEWVSTISSGGSFTHYPDSVKGRFTISRDNSKNTLYLQMNSLRAEDTAVYYCVRRSGDWYFDVWGAGTTVTVSSASTKGPSVFPLAPSSKSTSGGTAALGCLVKDYFPEPVTVSWNSGALTSGVHTFPAVLQSSGLYSLSSVVTVPSSSLGTQTYICNVNHKPSDTKVDKKVEPKSCDKTHTCPPCPAPPVAGPSVFLFPPKPKDTLMISRTPEVTCVVVDVKHEDPEVKFNWYVDGVEVHNAKTKPREEEYNSTYRVVSVLTVLHQDWLNGKEYKCKVSNKALPAPIEKTISKAKGQPREPQVYTLPPSREEMTKNQVSLTCDVSGFYPSDIAVEWESDGQPENNYKTTPPVLDSDGSFFLYSKLTVDKSRWEQGDVFSCSVMHEALHNHYTQKSLSLSPGK scFv-Fc: not shown light: EIVLTQSPGTLSLSPGERATLSCRVSSSISSSNLHWYQQKPGQSPRPLIYGTSNLASGVPVRFSGSGSGTDYTLTISRLEPEDFAVYYCQQWSSYPLYTFGGGTKVEIKRTVAAPSVFIFPPSDEQLKSGTASVVCLLNNFYPREAKVQWKVDNALQSGNSQESVTEQDSKDSTYSLSSTLTLSKADYEKHKVYACEVTHQGLSSPVTKSFNRGEC | 0.037
XENP37412 (bispecific antibody, 1+1 Fab-scFv-Fc format; scFv in VL-linker-VH orientation; also called αPDL1×αCD28 bsAb; 1A7_L1_H1.14) heavy: EVQLLESGGGLVQPGGSLRLSCAASGFTFSSYDMSWVRQAPGKRLEWVSTISSGGSFTHYPDSVKGRFTISRDNSKNTLYLQMNSLRAEDTAVYYCVRRSGDWYFDVWGAGTTVTVSSASTKGPSVFPLAPSSKSTSGGTAALGCLVKDYFPEPVTVSWNSGALTSGVHTFPAVLQSSGLYSLSSVVTVPSSSLGTQTYICNVNHKPSDTKVDKKVEPKSCDKTHTCPPCPAPPVAGPSVFLFPPKPKDTLMISRTPEVTCVVVDVKHEDPEVKFNWYVDGVEVHNAKTKPREEEYNSTYRVVSVLTVLHQDWLNGKEYKCKVSNKALPAPIEKTISKAKGQPREPQVYTLPPSREEMTKNQVSLTCDVSGFYPSDIAVEWESDGQPENNYKTTPPVLDSDGSFFLYSKLTVDKSRWEQGDVFSCSVMHEALHNHYTQKSLSLSPGK scFv-Fc: not shown light: EIVLTQSPGTLSLSPGERATLSCRVSSSISSSNLHWYQQKPGQSPRPLIYGTSNLASGVPVRFSGSGSGTDYTLTISRLEPEDFAVYYCQQWSSYPLYTFGGGTKVEIKRTVAAPSVFIFPPSDEQLKSGTASVVCLLNNFYPREAKVQWKVDNALQSGNSQESVTEQDSKDSTYSLSSTLTLSKADYEKHKVYACEVTHQGLSSPVTKSFNRGEC | 0.286
XENP37559 (bispecific antibody, 1+1 Fab-scFv-Fc format; also called αPDL1×αCD28 bsAb; 1A7_H1_L1.71) heavy: EVQLLESGGGLVQPGGSLRLSCAASGFTFSSYDMSWVRQAPGKRLEWVSTISSGGSFTHYPDSVKGRFTISRDNSKNTLYLQMNSLRAEDTAVYYCVRRSGDWYFDVWGAGTTVTVSSASTKGPSVFPLAPSSKSTSGGTAALGCLVKDYFPEPVTVSWNSGALTSGVHTFPAVLQSSGLYSLSSVVTVPSSSLGTQTYICNVNHKPSDTKVDKKVEPKSCDKTHTCPPCPAPPVAGPSVFLFPPKPKDTLMISRTPEVTCVVVDVKHEDPEVKFNWYVDGVEVHNAKTKPREEEYNSTYRVVSVLTVLHQDWLNGKEYKCKVSNKALPAPIEKTISKAKGQPREPQVYTLPPSREEMTKNQVSLTCDVSGFYPSDIAVEWESDGQPENNYKTTPPVLDSDGSFFLYSKLTVDKSRWEQGDVFSCSVMHEALHNHYTQKSLSLSPGK scFv-Fc: not shown light: EIVLTQSPGTLSLSPGERATLSCRVSSSISSSNLHWYQQKPGQSPRPLIYGTSNLASGVPVRFSGSGSGTDYTLTISRLEPEDFAVYYCQQWSSYPLYTFGGGTKVEIKRTVAAPSVFIFPPSDEQLKSGTASVVCLLNNFYPREAKVQWKVDNALQSGNSQESVTEQDSKDSTYSLSSTLTLSKADYEKHKVYACEVTHQGLSSPVTKSFNRGEC | 0.18
XENP37560 (bispecific antibody, 1+1 Fab-scFv-Fc format; also called αPDL1×αCD28 bsAb; 1A7_H1.1_L1.71) heavy: EVQLLESGGGLVQPGGSLRLSCAASGFTFSSYDMSWVRQAPGKRLEWVSTISSGGSFTHYPDSVKGRFTISRDNSKNTLYLQMNSLRAEDTAVYYCVRRSGDWYFDVWGAGTTVTVSSASTKGPSVFPLAPSSKSTSGGTAALGCLVKDYFPEPVTVSWNSGALTSGVHTFPAVLQSSGLYSLSSVVTVPSSSLGTQTYICNVNHKPSDTKVDKKVEPKSCDKTHTCPPCPAPPVAGPSVFLFPPKPKDTLMISRTPEVTCVVVDVKHEDPEVKFNWYVDGVEVHNAKTKPREEEYNSTYRVVSVLTVLHQDWLNGKEYKCKVSNKALPAPIEKTISKAKGQPREPQVYTLPPSREEMTKNQVSLTCDVSGFYPSDIAVEWESDGQPENNYKTTPPVLDSDGSFFLYSKLTVDKSRWEQGDVFSCSVMHEALHNHYTQKSLSLSPGK scFv-Fc: not shown light: EIVLTQSPGTLSLSPGERATLSCRVSSSISSSNLHWYQQKPGQSPRPLIYGTSNLASGVPVRFSGSGSGTDYTLTISRLEPEDFAVYYCQQWSSYPLYTFGGGTKVEIKRTVAAPSVFIFPPSDEQLKSGTASVVCLLNNFYPREAKVQWKVDNALQSGNSQESVTEQDSKDSTYSLSSTLTLSKADYEKHKVYACEVTHQGLSSPVTKSFNRGEC | 0.096
XENP36233 (bispecific antibody, 1+1 Fab-scFv-Fc format, heterodimeric IgG1 Fc with FcγR ablation variants; also called αPDL1×αCD28 bsAb; 2G4 H1L1 Fab × 1A7_H1.14_L1 scFv) heavy: EVQLLESGGGLVQPGGSLRLSCAASGFTFSSYDMSWVRQAPGKRLEWVSTISSGGSFTHYPDSVKGRFTISRDNSKNTLYLQMNSLRAEDTAVYYCVRRSGDWYFDVWGAGTTVTVSSASTKGPSVFPLAPSSKSTSGGTAALGCLVKDYFPEPVTVSWNSGALTSGVHTFPAVLQSSGLYSLSSVVTVPSSSLGTQTYICNVNHKPSDTKVDKKVEPKSCDKTHTCPPCPAPPVAGPSVFLFPPKPKDTLMISRTPEVTCVVVDVKHEDPEVKFNWYVDGVEVHNAKTKPREEEYNSTYRVVSVLTVLHQDWLNGKEYKCKVSNKALPAPIEKTISKAKGQPREPQVYTLPPSREEMTKNQVSLTCDVSGFYPSDIAVEWESDGQPENNYKTTPPVLDSDGSFFLYSKLTVDKSRWEQGDVFSCSVMHEALHNHYTQKSLSLSPGK scFv-Fc: not shown light: EIVLTQSPGTLSLSPGERATLSCRVSSSISSSNLHWYQQKPGQSPRPLIYGTSNLASGVPVRFSGSGSGTDYTLTISRLEPEDFAVYYCQQWSSYPLYTFGGGTKVEIKRTVAAPSVFIFPPSDEQLKSGTASVVCLLNNFYPREAKVQWKVDNALQSGNSQESVTEQDSKDSTYSLSSTLTLSKADYEKHKVYACEVTHQGLSSPVTKSFNRGEC | 0.24

— patent US20220135684A1 (Xencor, published 2022)
